Data published in PMC5153249.

How the values were obtained:
Assay in all cases: EMSA
[1] = system: eIF3 (c GAP85) (Saccharomyces cerevisiae); conditions: mean of 2, Met-charged tRNAi, 30 mM HEPES-KOH pH 7.4, 100 mM KOAc, 3 mM Mg(OAc)2, 2 mM DTT, 1 mM GDPNP, 26 C, 2 h, native 4% THEM gel
[2] = system: eIF3 a/b/c sub-complex (Saccharomyces cerevisiae); conditions: mean of 2, Met-charged tRNAi, 30 mM HEPES-KOH pH 7.4, 100 mM KOAc, 3 mM Mg(OAc)2, 2 mM DTT, 1 mM GDPNP, 26 C, 2 h, native 4% THEM gel
[3] = system: eIF3 (a Box6) (Saccharomyces cerevisiae); conditions: mean of 2, Met-charged tRNAi, 30 mM HEPES-KOH pH 7.4, 100 mM KOAc, 3 mM Mg(OAc)2, 2 mM DTT, 1 mM GDPNP, 26 C, 2 h, native 4% THEM gel
[4] = system: eIF3 (a H725P) (Saccharomyces cerevisiae); conditions: mean of 2; Met-charged tRNAi; uncapped mRNA; 30 mM HEPES-KOH pH 7.4, 100 mM KOAc, 3 mM Mg(OAc)2, 2 mM DTT, 1 mM GDPNP, 26 C, 2 h; native 4% THEM gel
[5] = system: eIF3 (i Q258R) (Saccharomyces cerevisiae); conditions: mean of 2, Met-charged tRNAi, 30 mM HEPES-KOH pH 7.4, 100 mM KOAc, 3 mM Mg(OAc)2, 2 mM DTT, 1 mM GDPNP, 26 C, 2 h, native 4% THEM gel
[6] = system: eIF3 WT (a/b/c/i/g) (Saccharomyces cerevisiae); conditions: Met-charged tRNAi, 30 mM HEPES-KOH pH 7.4, 100 mM KOAc, 3 mM Mg(OAc)2, 2 mM DTT, 1 mM GDPNP, 26 C, 2 h, native 4% THEM gel
[7] = system: eIF3 (a R731I) (Saccharomyces cerevisiae); conditions: mean of 2; Met-charged tRNAi; uncapped mRNA; 30 mM HEPES-KOH pH 7.4, 100 mM KOAc, 3 mM Mg(OAc)2, 2 mM DTT, 1 mM GDPNP, 26 C, 2 h; native 4% THEM gel
[8] = system: eIF3 (g KLF) (Saccharomyces cerevisiae); conditions: mean of 2, Met-charged tRNAi, 30 mM HEPES-KOH pH 7.4, 100 mM KOAc, 3 mM Mg(OAc)2, 2 mM DTT, 1 mM GDPNP, 26 C, 2 h, native 4% THEM gel
[9] = system: eIF3 (c delta60) (Saccharomyces cerevisiae); conditions: mean of 2, Met-charged tRNAi, 30 mM HEPES-KOH pH 7.4, 100 mM KOAc, 3 mM Mg(OAc)2, 2 mM DTT, 1 mM GDPNP, 26 C, 2 h, native 4% THEM gel
[10] = system: eIF3 (a delta8) (Saccharomyces cerevisiae); conditions: mean of 2, Met-charged tRNAi, 30 mM HEPES-KOH pH 7.4, 100 mM KOAc, 3 mM Mg(OAc)2, 2 mM DTT, 1 mM GDPNP, 26 C, 2 h, native 4% THEM gel
[11] = system: eIF3 (a Box37) (Saccharomyces cerevisiae); conditions: mean of 2, Met-charged tRNAi, 30 mM HEPES-KOH pH 7.4, 100 mM KOAc, 3 mM Mg(OAc)2, 2 mM DTT, 1 mM GDPNP, 26 C, 2 h, native 4% THEM gel
[12] = system: eIF3 (c Box12-SPW) (Saccharomyces cerevisiae); conditions: mean of 2; Met-charged tRNAi; 30 mM HEPES-KOH pH 7.4, 100 mM KOAc, 3 mM Mg(OAc)2, 2 mM DTT, 1 mM GDPNP, 26 C, 2 h; native 4% THEM gel

“48S PIC (40S rRNA + Met-tRNAi + AUG model mRNA)” was tested. Which Kd ([1]; uncapped mRNA) did it give?
Its Kd is 38 nM.

And the Kd ([2]; uncapped mRNA)?
The Kd was 108 nM.

What about the Kd ([3]; uncapped mRNA) of the same substance?
Its Kd is 38 nM.

And the Kd [4]?
The Kd was 62.5 nM.

And the Kd ([5]; uncapped mRNA)?
The Kd was 48.5 nM.

What about the Kd ([6]; mean of 2, uncapped mRNA) of the same substance?
Its Kd is 37.5 nM.

What about the Kd [7] of the same substance?
The Kd was 50 nM.

What about the Kd ([8]; uncapped mRNA) of the same substance?
The Kd was 52.5 nM.

What about the Kd ([9]; uncapped mRNA) of the same substance?
The Kd was 46.5 nM.

And the Kd ([10]; uncapped mRNA)?
Its Kd is 88.5 nM.

What about the Kd ([11]; uncapped mRNA) of the same substance?
The Kd was 83.5 nM.

What does the source list for 43S PIC (40S rRNA + Met-tRNAi)?
Kd ([1]; upper limit): 26.5 nM; Kd [2]: 92.5 nM; Kd [3]: 35 nM; Kd ([5]; upper limit): 30 nM; Kd ([6]; mean of 43, 24, text <=38 nM, upper limit): 33.5 nM; Kd ([8]; upper limit): 21.5 nM; Kd [12]: 66.5 nM; Kd ([9]; upper limit): 24 nM; Kd [10]: 87 nM; Kd [11]: 59.5 nM
